According to the nanobody polyreactivity screen of Harvey et al. (2022):

Assay: yeast display, Sf9 membrane polyspecificity reagent, FACS + sequencing; frameworks hold sequencing errors
Outline: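 Nanobodies from a synthetic yeast display library (Saccharomyces cerevisiae BJ5465), induced 36–48 hours with galactose, were stained 1 hour at 4 °C with 10% biotinylated, detergent-solubilized Sf9 membrane reagent, enriched on streptavidin microbeads, then FACS-sorted. Anti-HA (expression) and streptavidin (reagent binding) fluorescence set low and high (top ~1%) gates. Polyreactivity labels come from the gate of origin. Genes were colony-PCR amplified, MiSeq 2 × 250 sequenced and filtered by CDR length.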

Sequence | polyreactivity (PSR sort gate)
QVQLVESGGGLVQAGGSLRLSCAASGSTFWLYTMGCYRQAPVKERELVAAISTRGGSTYYADSVKGRFTISRDNAKNTVYVQMHSLKPEDTAVYYCAAYPTYGEYDYWGQGSQVTVSS | high polyreactivity
QVQLVESGGGLVQAGGSLRLSCAASGSTFWLYVMGWYRQAPGKERELVAAISSGGITKYADSVKGRFTISRDNAKNTVYLQMNSLKPEDTAVYYCAVGVLGYRRVTGYYWGQGTQVTVTS | high polyreactivity
QVQLVESGGGLVQAGGSLRLSCAASGSTFWNAMGWYRQAPGKERELVAAIRLSGGSTYYADSVKGRFTISRDNAKNTVYLQMNRLKPEDTAVYYCATDLVFVSSDLQETAYYWGQGTQVTVSS | low polyreactivity
QVQLVESGGGLVQAGGSLRLSCAASGSTFWNYAMGWYRQAPGKERELVAAITRGSSTNYADSVKGRFTISRDNAKNTVYLQMNSLKPEDTAVYYCANPVGRWSAFYYWGQGTQVTVSS | high polyreactivity
QVQLVESGGGLVQAGGSLRLSCAASGSTFWNYAMGWYRQAPGKERELVASIDSSDGRTYYADSVKGRFTSSRDNAKNTVFLQMTRQKPEDTAVDYCAKDAYAVELRPYSKLSSRADGYWGHGTQVTVSS | low polyreactivity
QVQLVESGGGLVQAGGSLRLSCAASGSTFWPYAMGRYRPAPGKERELGATIRGGGTSTYYADSVKGRVTISRDNAKNTVYLQMNSLKPEDTAGYYCAARGFYTGSYPGYYYWGQGTQVTVSS | high polyreactivity
QVQLVESGGGLVQAGGSLRLSCAASGSTFWPYAMGWYIQAPGKERELVAAITSSGGSTYYADSVKGRFTISRDNAKNTVYLQMNSLKAEDTAVYYCAADWSNLGAYDYWGQGTQVTVSS | low polyreactivity
QVQLVESGGGLVQAGGSLRLSCAASGSTFWPYAMGWYRQAPGKERELVAAITTRDGSTYYADSVKGRFTISRDNAKNTVYLQMNSLKPEDTAVYYCAAKSSRYDYYYWGQGTQVTVSS | high polyreactivity
QVQLVESGGGLVQAGGSLRLSCAASGSTFWPYAMGWYRQAPVKERELVADISRRCGSTYYADSVKGRFTISRDNAKNTVYLQMNSLKPEDTAVYYCAKYPSAYVDSDVTYDMAYWGQGTQVTVSS | low polyreactivity
QVQLVESGGGLVQAGGSLRLSCAASGSTFWPYTMGWYRQAPGKERELVAAITLRGGTTYYADSVKGRFTISRDNEKNTVYLQMNSLKPEDTAVYYCAADVAYVEYDYWGQGTQVTVSS | low polyreactivity
QVQLVESGGGLVQAGGSLRLSCAASGSTFWQYALGWYRQAPGKEREFVAAISSRGGSTYYADSVKGRFTISRDNAKNTVYLQMNSLKPEDTAVYYCAAQNYFAFIRTYRYVHRPTYYYWGQGTQVTVSS | high polyreactivity
QVQLVESGGGLVQAGGSLRLSCAASGSTFWRNAMGWYRQAPGKERELVAAISRGGSTNYADSVKGRFTISRDNAKNTVYLQMNSLKPEDTAVYYCAARYYYRYNYWGQGTQVTVSS | high polyreactivity
QVQLVESGGGLVQAGGSLRLSCAASGSTFWRYAMGWYRQAPGKERELVAAISRSGGSTYYADSVKGRFTISRDNAKNTVYLQMNSLKPEDTAVYYCAAQYGGKYKLYSDSYAMDYWGQGTQVTVSS | high polyreactivity
QVQLVESGGGLVQAGGSLRLSCAASGSTFWSNAMGWYRQAPGKERELVAAISISDGNTYYADSVKGRFTISRDNAKNTVYLQMNSLKPEDTAVYYCATVGSEDGDPGFDYWGQGTQVTVSS | low polyreactivity
QVQLVESGGGLVQAGGSLRLSCAASGSTFWSNAMGWYRQAPGKERELVAAITRGGSTNYADSVKGRFTISRDNAKNTVYLQMNSLKPEDTAVYFCAATYVPYGRRLYAYYYWGQGTQVTVSS | high polyreactivity
QVQLVESGGGLVQAGGSLRLSCAASGSTFWSNTMGWYRQAPGKERELVATITDSGGITYYADSVKGRFTISRDNAKNTVYLQMNSLKPEDTAVYYCNVRKTWYGYSVTGRYDYWGQGTQVTVSS | low polyreactivity
QVQLVESGGGLVQAGGSLRLSCAASGSTFWSNVMGWYRQAPGKERELVSAISYGGVTTSYADSVKGRFTISRDNAKNTVYLQMNSLKPEDTAVYYCAAYNGAHSHFGYWGQGTQVTVSS | low polyreactivity
